# Test results from patent US20170158747A1 (Novartis, published 2017).
# T1: cynomolgus monkey IL10 receptor on cynomolgus whole blood cells (cynomolgus monkey, UniProt A0A2K5WJ66 22-576; A0A7N9D6W2 20-323)
# T1 sequence 1: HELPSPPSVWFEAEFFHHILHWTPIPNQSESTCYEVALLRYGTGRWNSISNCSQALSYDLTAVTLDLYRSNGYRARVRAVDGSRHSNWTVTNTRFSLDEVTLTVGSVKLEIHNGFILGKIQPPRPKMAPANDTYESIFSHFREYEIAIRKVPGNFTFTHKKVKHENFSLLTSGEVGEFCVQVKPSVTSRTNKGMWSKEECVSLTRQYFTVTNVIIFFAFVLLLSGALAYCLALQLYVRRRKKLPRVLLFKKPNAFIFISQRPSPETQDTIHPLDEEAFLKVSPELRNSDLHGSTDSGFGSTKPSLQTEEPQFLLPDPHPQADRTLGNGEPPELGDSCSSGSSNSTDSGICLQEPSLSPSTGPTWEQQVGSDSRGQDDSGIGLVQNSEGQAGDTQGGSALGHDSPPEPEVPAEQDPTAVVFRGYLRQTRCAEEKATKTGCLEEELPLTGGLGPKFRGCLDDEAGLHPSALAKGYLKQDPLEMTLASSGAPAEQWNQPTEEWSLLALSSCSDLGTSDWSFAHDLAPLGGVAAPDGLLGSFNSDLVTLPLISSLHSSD
# T1 sequence 2: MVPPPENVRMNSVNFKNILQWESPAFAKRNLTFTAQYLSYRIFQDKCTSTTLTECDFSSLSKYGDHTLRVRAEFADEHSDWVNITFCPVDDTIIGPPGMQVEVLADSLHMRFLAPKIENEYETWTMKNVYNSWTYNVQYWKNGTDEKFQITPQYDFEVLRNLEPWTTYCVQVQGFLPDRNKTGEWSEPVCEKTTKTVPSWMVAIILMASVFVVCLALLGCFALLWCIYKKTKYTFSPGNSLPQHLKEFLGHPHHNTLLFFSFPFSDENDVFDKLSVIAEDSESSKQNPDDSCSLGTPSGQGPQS
# T2: human IL10 receptor (IL10R1/R2 receptor complex) on human whole blood cells (human, UniProt Q13651 22-578; Q08334 20-325)
# T2 sequence (looked up) 1: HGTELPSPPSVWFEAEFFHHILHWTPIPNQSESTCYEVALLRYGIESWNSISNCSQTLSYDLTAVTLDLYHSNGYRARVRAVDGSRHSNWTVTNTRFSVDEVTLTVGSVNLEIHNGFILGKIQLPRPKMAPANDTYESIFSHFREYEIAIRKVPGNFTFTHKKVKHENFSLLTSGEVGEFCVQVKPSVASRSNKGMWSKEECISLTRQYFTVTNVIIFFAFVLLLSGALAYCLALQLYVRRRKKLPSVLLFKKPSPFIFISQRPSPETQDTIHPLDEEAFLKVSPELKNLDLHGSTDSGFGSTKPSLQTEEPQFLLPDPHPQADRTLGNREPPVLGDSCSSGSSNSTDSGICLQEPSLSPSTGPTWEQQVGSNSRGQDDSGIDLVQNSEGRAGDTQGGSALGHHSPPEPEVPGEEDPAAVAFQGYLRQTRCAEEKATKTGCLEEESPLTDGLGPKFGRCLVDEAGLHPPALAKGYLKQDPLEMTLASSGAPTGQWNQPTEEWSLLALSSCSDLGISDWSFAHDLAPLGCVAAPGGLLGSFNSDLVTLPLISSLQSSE
# T2 sequence (looked up) 2: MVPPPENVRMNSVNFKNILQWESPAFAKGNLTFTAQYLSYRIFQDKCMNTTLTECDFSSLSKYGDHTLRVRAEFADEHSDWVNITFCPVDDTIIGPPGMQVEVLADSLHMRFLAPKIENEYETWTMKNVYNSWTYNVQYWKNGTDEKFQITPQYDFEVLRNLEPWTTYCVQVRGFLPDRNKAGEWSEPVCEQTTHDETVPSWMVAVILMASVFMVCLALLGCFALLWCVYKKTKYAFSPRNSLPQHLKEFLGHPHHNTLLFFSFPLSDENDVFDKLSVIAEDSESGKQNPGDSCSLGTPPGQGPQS
# T3: mouse IL10 receptor on mouse cells (whole blood, colon) (mouse, UniProt Q61727 17-575; Q61190 20-349)
# T3 sequence (looked up) 1: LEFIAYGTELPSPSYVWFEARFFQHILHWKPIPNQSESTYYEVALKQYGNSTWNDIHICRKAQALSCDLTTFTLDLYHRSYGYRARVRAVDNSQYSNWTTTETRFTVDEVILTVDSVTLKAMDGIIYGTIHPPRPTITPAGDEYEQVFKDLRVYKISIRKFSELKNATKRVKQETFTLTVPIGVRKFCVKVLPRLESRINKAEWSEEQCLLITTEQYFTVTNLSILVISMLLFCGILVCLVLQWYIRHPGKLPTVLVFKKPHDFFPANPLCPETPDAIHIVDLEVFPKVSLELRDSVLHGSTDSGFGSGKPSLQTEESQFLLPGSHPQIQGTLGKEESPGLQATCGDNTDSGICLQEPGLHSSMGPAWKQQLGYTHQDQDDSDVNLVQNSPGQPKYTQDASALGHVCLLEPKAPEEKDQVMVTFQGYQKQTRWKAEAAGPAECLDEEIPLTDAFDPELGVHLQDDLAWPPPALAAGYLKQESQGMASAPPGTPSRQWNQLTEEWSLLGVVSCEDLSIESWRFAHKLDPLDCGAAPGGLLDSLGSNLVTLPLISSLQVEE
# T3 sequence (looked up) 2: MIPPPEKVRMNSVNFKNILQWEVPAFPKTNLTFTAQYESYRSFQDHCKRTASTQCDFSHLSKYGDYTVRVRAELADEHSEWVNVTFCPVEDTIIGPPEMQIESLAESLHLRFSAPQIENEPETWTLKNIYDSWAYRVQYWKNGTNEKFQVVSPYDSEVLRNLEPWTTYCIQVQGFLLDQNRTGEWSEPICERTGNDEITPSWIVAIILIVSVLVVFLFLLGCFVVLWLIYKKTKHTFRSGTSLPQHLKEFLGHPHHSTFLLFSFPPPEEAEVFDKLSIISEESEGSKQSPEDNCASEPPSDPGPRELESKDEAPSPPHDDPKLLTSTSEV
# Columns and labels:
# Test in all cases: cell-based or functional assay
# [1] = biological target: T1, cynomolgus monkey IL10 receptor on …
# [2] = biological target: T2, human IL10 receptor (IL10R1/R2 receptor …)
# [3] = biological target: T3, mouse IL10 receptor on mouse cells …
binder,measurement,setting,value
IgGIL10M13 (antibody) heavy: not shown light: DIQMTQSPSTLSASVGDRVTITCKAQLSSPGQGTQSENSCTHFPGNLPNMLRDLRDAFSRVKTFFQMKDQLDNLLLKESLLEDFKGYLGCQALSEMIQFYLEEVMPQAENQDPDIKAHVNSLGENLKTLRLRLRRCHRFLPCENGGGSGGKSKAVEQVKNAFNKLQEKGIYKAMSEFDIFINYIEAYMTMKIRNVGYMHWYQQKPGKAPKLLIYDTSKLASGVPSRFSGSGSGTAFTLTISSLQPDDFATYYCFQGSGYPFTFGGGTKLEIKRTVAAPSVFIFPPSDEQLKSGTASVVCLLNNFYPREAKVQWKVDNALQSGNSQESVTEQDSKDSTYSLSSTLTLSKADYEKHKVYACEVTHQGLSSPVTKSFNRGEC,"IC50, inhibition of LPS-induced TNFα production, ex vivo cynomolgus whole blood",[1],6.67 pM
same,"IC50, inhibition of LPS-induced TNFα production, ex vivo human whole blood",[2],25.2 pM
same,"IC50, inhibition of LPS-induced TNFα production, ex vivo mouse whole blood",[3],12 pM
